In US20030212253A1 (AMERICAN NATIONAL RED CROSS, published 2003):
Values belong to the molecule of their own block, whether it stands above or below them. Non-standard residues stand in square brackets, D forms with d. No end group written: not given here. 2Nal = N[C@@H](Cc1ccc2ccccc2c1)C(=O)O; Ahx = NCCCCCC(=O)O

Tests used:
[1] = target: fibrinogen (human plasma) (human) (UniProt P02671); experiment: affinity chromatography of 5 ml plasma on 0.8 ml peptide resin column
[2] = target: vWF/fVIII complex (human plasma) (human) (UniProt P04275); experiment: batch binding of pooled human plasma to peptide resin, then column elution; fVIII chromogenic assay
[3] = target: vWF/fVIII complex (human plasma) (human) (UniProt P04275); experiment: batch binding of pooled human plasma to peptide resin, then column elution; load 8.46 IU; fVIII coagulation assay
[4] = target: vWF/fVIII complex (human plasma) (human) (UniProt P04275); experiment: batch binding of 20 ml pooled human plasma to 0.8 ml peptide resin, then column elution; load 21.4 IU; fVIII chromogenic assay
[5] = target: vWF/fVIII complex (human plasma) (human) (UniProt P04275); experiment: batch binding of pooled human plasma to peptide resin, then column elution; fVIII coagulation assay
[6] = target: fibrinogen (human plasma) (human) (UniProt P02671); experiment: affinity chromatography of plasma on peptide resin, Evaluation 2, load 51 mg; nephelometric fibrinogen antigen
[7] = target: fibrinogen (human plasma) (human) (UniProt P02671); experiment: affinity chromatography of plasma on peptide resin, Evaluation 2; nephelometric fibrinogen antigen
[8] = target: fibrinogen (human plasma) (human) (UniProt P02671); experiment: affinity chromatography of plasma on peptide resin, Evaluation 1; nephelometric fibrinogen antigen
[9] = target: fibrinogen (human plasma) (human) (UniProt P02671); experiment: affinity chromatography of plasma on peptide resin, Evaluation 1, load 51 mg; nephelometric fibrinogen antigen
[10] = target: fibrinogen (human plasma) (human) (UniProt P02671); experiment: affinity chromatography of plasma on peptide resin, ligand density 0.67-0.94 mmol/g resin
albumin (human plasma) = target: T1, albumin (human plasma) (human, UniProt P02768 25-609); experiment: affinity chromatography of fibrinogen- and Apo-A1-depleted plasma on peptide resin, 0.020 M sodium citrate; nephelometry
T1 construct: mature
Procedure: Fibrinogen and Apo-A1 lipoprotein-depleted plasma (prepared in Example 5) was loaded at a linear velocity of 30 cm/hour (0.4 ml/min; RT=5.1) onto 2.0 ml column (CF=0.785 cm²) that had been equilibrated with 0.14 M NaCl, 0.020 M sodium citrate, pH 7.0 (EQ buffer). After the column was washed with EQ buffer and 2.0 M NaCl, 0.020 M sodium citrate, pH 6.0, to baseline, the API protein was eluted with 2.0 M NaCl, 1% Tween 20, 0.020 M sodium citrate, pH 6.0. The column was regenerated with 2.0 M guanidine-HCl, 2% Sarkosyl and 2% acetic acid and stored in 20% methanol. […] Not all of the API was quantitatively eluted, but could be eluted using 2M guanidine. Purification of API protein to approximately 70% purity was accomplished with ligand HFVAPH (SEQ ID NO: 46) (isolated from an L-Library).

Molecule: [dA]RQFDF[Ahx] (also: D- prefix in name, which residues are D is not settled) [D-ARQFDF (SEQ ID NO: 20) peptide displayed on ToyoPearl AF-Amino 650 M resin]
total fibrinogen in elution [6]: 54 mg
fibrinogen in flow thru + post wash [7]: < 0.15 mg/mL
recovery of fibrinogen in elution (%) [7]: 100%
fibrinogen in flow thru + post wash [8]: < 0.15 mg/mL
recovery of fibrinogen in elution (%) [8]: 91%
total fibrinogen in elution [9]: 46 mg
dynamic resin capacity [10]: 6 to 8 g/L of resin

Molecule: HFVAPH (also: immobilised on resin via C-terminus, Immobilised on chromatography resin) [L-HFVAPH (SEQ ID NO: 46) peptide ligand displayed on resin]
binding result (albumin (human plasma)): no binding

Next, values leading:

dynamic resin capacity [1]: 5 to 8 mg
Molecule: HWQ (SEQ ID NO: 7) peptide attached to a chromatography resin

FVIII recovery in elution 1, 0.75 M NaCl (%), chromogenic assay [2]: 21.5%
FVIII recovery in elution 2, 1.0 M NaCl (%), chromogenic assay [2]: 0%
FVIII recovery in flow-through (%), chromogenic assay [2]: 7.5%
FVIII recovery in wash, 0.5 M NaCl (%), chromogenic assay [2]: 5.6%
total FVIII in elution 1, 0.75 M NaCl (IU), chromogenic assay [2]: 4.6 IU
total FVIII in elution 2, 1.0 M NaCl (IU), chromogenic assay [2]: 0 IU
total FVIII in wash, 0.5 M NaCl (IU), chromogenic assay [2]: 1.2 IU
total FVIII in flow-through (IU), coagulation assay [3]: 1.6 IU
total FVIII in flow-through (IU), chromogenic assay [4]: 1.6 IU
FVIII recovery in elution 1, 0.75 M NaCl (%), coagulation assay [5]: 46%
FVIII recovery in elution 2, 1.0 M NaCl (%), coagulation assay [5]: 0%
FVIII recovery in flow-through (%), coagulation assay [5]: 18.9%
FVIII recovery in wash, 0.5 M NaCl (%), coagulation assay [5]: 0%
total FVIII in elution 1, 0.75 M NaCl (IU), coagulation assay [5]: 3.9 IU
total FVIII in elution 2, 1.0 M NaCl (IU), coagulation assay [5]: 0 IU
total FVIII in wash, 0.5 M NaCl (IU), coagulation assay [5]: 0 IU
Molecule: EAD[2Nal]ED (not fully specified (C-terminus)) [D-EADna2′ED (SEQ ID NO: 66) resin]
